Drawing on the supplement of paper PMC10567573, this text covers protein stability index for 94 variants.

B1: RHOBTB3 (parent)
chain: KVVEAHKIVLCAVSHVFMLLFNVK
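Note: lentivirally expressed fusions sorted by FACS into six bins by GFP to DsRed ratio, PSI derived from sequencing read proportions per bin multiplied by bin number.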

Variants of B1 are the subject of the data set. The data set can be described thus: protein stability index of a GFP-peptide fusion (GPS, HEK-293T) (PSI 1-6); higher = more stable. The settings on record: c terminus: a fixed tail appended.
Turning to KVVEAHCIVLCAVSHVFMLLFNVK [K7C], the protein stability index stood at 1.83.

On to KVVEAHVIVLCAVSHVFMLLFNVK [K7V], for which the protein stability index amounted to 2.31.

Take KVVEAHYIVLCAVSHVFMLLFNVK [K7Y]: the protein stability index was 3.35.

Regarding KVVEAHFIVLCAVSHVFMLLFNVK [K7F], the protein stability index came to 2.99.

Turning to KVVEAHWIVLCAVSHVFMLLFNVK [K7W], the protein stability index was 2.34.

For the variant KVVEAHLIVLCAVSHVFMLLFNVK [K7L], the protein stability index worked out at 2.74.

On to KVVEAHRIVLCAVSHVFMLLFNVK [K7R], for which the protein stability index was 2.65.

As for KVVEAHDIVLCAVSHVFMLLFNVK [K7D], the protein stability index was determined as 3.98.

Take KVVEAHTIVLCAVSHVFMLLFNVK [K7T]: the protein stability index came out at 2.64.

As for KVVEAHMIVLCAVSHVFMLLFNVK [K7M], the protein stability index came out at 2.93.

Consider KVVEAHAIVLCAVSHVFMLLFNVK [K7A], for which the protein stability index is 3.36.

On to KVVEAHNIVLCAVSHVFMLLFNVK [K7N], for which the protein stability index is 2.31.

For KVVEAHGIVLCAVSHVFMLLFNVK [K7G], the protein stability index turned out to be 2.79.

For KVVEAHEIVLCAVSHVFMLLFNVK [K7E], the protein stability index came to 2.9.

Turning to KVVEAHQIVLCAVSHVFMLLFNVK [K7Q], the protein stability index is 3.

KVVEAHPIVLCAVSHVFMLLFNVK [K7P]: the protein stability index was 2.02.

As for KVVEAHSIVLCAVSHVFMLLFNVK [K7S], the protein stability index was 2.01.

As for KVVEAHKIVLCEVSHVFMLLFNVK [A12E], the protein stability index was 2.31.

As for KVVEAHKIVLCNVSHVFMLLFNVK [A12N], the protein stability index is 3.15.

In the case of KVVEAHKIVLCQVSHVFMLLFNVK [A12Q], the protein stability index amounted to 2.37.

KVVEAHKIVLCKVSHVFMLLFNVK [A12K]: the protein stability index amounted to 2.92.

Turning to KVVEAHKIVLCVVSHVFMLLFNVK [A12V], the protein stability index worked out at 2.57.

Regarding KVVEAHKIVLCGVSHVFMLLFNVK [A12G], the protein stability index worked out at 2.92.

Consider KVVEAHKIVLCDVSHVFMLLFNVK [A12D], for which the protein stability index turned out to be 3.75.

Consider KVVEAHKIVLCMVSHVFMLLFNVK [A12M], for which the protein stability index worked out at 2.2.

In the case of KVVEAHKIVLCRVSHVFMLLFNVK [A12R], the protein stability index was found to be 2.33.

KVVEAHKIVLCTVSHVFMLLFNVK [A12T]: the protein stability index amounted to 1.6.

As to KVVEAHKIVLCPVSHVFMLLFNVK [A12P], the protein stability index came out at 2.73.

With KVVEAHKIVLCCVSHVFMLLFNVK [A12C], the protein stability index is 2.29.

Take KVVEAHKIVLCLVSHVFMLLFNVK [A12L]: the protein stability index was determined as 3.63.

Regarding KVVEAHKIVLCIVSHVFMLLFNVK [A12I], the protein stability index is 1.96.

As to KVVEAHKIVLCYVSHVFMLLFNVK [A12Y], the protein stability index is 2.46.

Take KVVEAHKIVLCFVSHVFMLLFNVK [A12F]: the protein stability index turned out to be 2.55.

Regarding KVVEAHKIVLCSVSHVFMLLFNVK [A12S], the protein stability index is 2.78.

For KVVEAHKIVLCHVSHVFMLLFNVK [A12H], the protein stability index is 2.83.

For KVVEGHKIVLCAVSHVFMLLFNVK [A5G], the protein stability index is 3.1.

For the variant KVVEFHKIVLCAVSHVFMLLFNVK [A5F], the protein stability index worked out at 2.45.

Take KVVENHKIVLCAVSHVFMLLFNVK [A5N]: the protein stability index came to 2.07.

As to KVVEWHKIVLCAVSHVFMLLFNVK [A5W], the protein stability index amounted to 3.03.

With KVVEPHKIVLCAVSHVFMLLFNVK [A5P], the protein stability index was 3.11.

As for KVVEYHKIVLCAVSHVFMLLFNVK [A5Y], the protein stability index turned out to be 3.88.

As for KVVEMHKIVLCAVSHVFMLLFNVK [A5M], the protein stability index was found to be 3.42.

In the case of KVVECHKIVLCAVSHVFMLLFNVK [A5C], the protein stability index was 2.77.

Take KVVEDHKIVLCAVSHVFMLLFNVK [A5D]: the protein stability index came to 3.37.

Take KVVERHKIVLCAVSHVFMLLFNVK [A5R]: the protein stability index worked out at 3.59.

As for KVVETHKIVLCAVSHVFMLLFNVK [A5T], the protein stability index turned out to be 1.72.

In the case of KVVEHHKIVLCAVSHVFMLLFNVK [A5H], the protein stability index was 2.9.

In the case of KVVEVHKIVLCAVSHVFMLLFNVK [A5V], the protein stability index was found to be 2.48.

With KVVEEHKIVLCAVSHVFMLLFNVK [A5E], the protein stability index is 3.14.

As to KVVEQHKIVLCAVSHVFMLLFNVK [A5Q], the protein stability index turned out to be 4.3.

Consider KVVESHKIVLCAVSHVFMLLFNVK [A5S], for which the protein stability index stood at 3.05.

Turning to KVVELHKIVLCAVSHVFMLLFNVK [A5L], the protein stability index came to 1.76.

KVVEKHKIVLCAVSHVFMLLFNVK [A5K]: the protein stability index turned out to be 2.58.

Take KVVIAHKIVLCAVSHVFMLLFNVK [E4I]: the protein stability index stood at 2.78.

With KVVSAHKIVLCAVSHVFMLLFNVK [E4S], the protein stability index was found to be 1.9.

Take KVVFAHKIVLCAVSHVFMLLFNVK [E4F]: the protein stability index was found to be 2.23.

KVVMAHKIVLCAVSHVFMLLFNVK [E4M]: the protein stability index was found to be 2.54.

As for KVVCAHKIVLCAVSHVFMLLFNVK [E4C], the protein stability index amounted to 2.67.

Take KVVLAHKIVLCAVSHVFMLLFNVK [E4L]: the protein stability index was 2.08.

For the variant KVVWAHKIVLCAVSHVFMLLFNVK [E4W], the protein stability index was determined as 1.42.

For KVVPAHKIVLCAVSHVFMLLFNVK [E4P], the protein stability index came to 2.37.

With KVVKAHKIVLCAVSHVFMLLFNVK [E4K], the protein stability index amounted to 3.02.

For KVVTAHKIVLCAVSHVFMLLFNVK [E4T], the protein stability index was determined as 2.53.

Take KVVVAHKIVLCAVSHVFMLLFNVK [E4V]: the protein stability index worked out at 2.79.

KVVQAHKIVLCAVSHVFMLLFNVK [E4Q]: the protein stability index was 2.23.

Consider KVVHAHKIVLCAVSHVFMLLFNVK [E4H], for which the protein stability index came out at 2.69.

For the variant KVVRAHKIVLCAVSHVFMLLFNVK [E4R], the protein stability index was found to be 2.69.

For the variant KVVDAHKIVLCAVSHVFMLLFNVK [E4D], the protein stability index was determined as 2.33.

For KVVAAHKIVLCAVSHVFMLLFNVK [E4A], the protein stability index was determined as 2.24.

In the case of KVVYAHKIVLCAVSHVFMLLFNVK [E4Y], the protein stability index came out at 2.75.

With KVTEAHKIVLCAVSHVFMLLFNVK [V3T], the protein stability index turned out to be 2.36.

Take KVYEAHKIVLCAVSHVFMLLFNVK [V3Y]: the protein stability index turned out to be 2.53.

For KVREAHKIVLCAVSHVFMLLFNVK [V3R], the protein stability index amounted to 2.02.

Regarding KVSEAHKIVLCAVSHVFMLLFNVK [V3S], the protein stability index worked out at 2.39.

On to KVVEAHKIVLFAVSHVFMLLFNVK [C11F], for which the protein stability index is 1.94.

On to KVVEAHKIVLNAVSHVFMLLFNVK [C11N], for which the protein stability index is 1.88.

As for KVVEAHKIVLQAVSHVFMLLFNVK [C11Q], the protein stability index was 2.37.

In the case of KVVEAHKIVLDAVSHVFMLLFNVK [C11D], the protein stability index is 2.13.

On to KVVEAHKIVLPAVSHVFMLLFNVK [C11P], for which the protein stability index came out at 2.8.

With KVVEAHKIVLWAVSHVFMLLFNVK [C11W], the protein stability index was 2.66.

As to KVVEAHKIVLEAVSHVFMLLFNVK [C11E], the protein stability index was 1.86.

Turning to KVVEAHKIVLLAVSHVFMLLFNVK [C11L], the protein stability index came out at 2.24.

As to KVVEAHKIVLSAVSHVFMLLFNVK [C11S], the protein stability index came to 1.98.

Turning to KVVEAHKIVLMAVSHVFMLLFNVK [C11M], the protein stability index turned out to be 2.26.

In the case of KVVEAHKIVLRAVSHVFMLLFNVK [C11R], the protein stability index was determined as 1.98.

On to KVVEAHKIVLGAVSHVFMLLFNVK [C11G], for which the protein stability index is 2.26.

KVVEAHKIVLAAVSHVFMLLFNVK [C11A]: the protein stability index is 2.85.

As for KVVEAHKIVLHAVSHVFMLLFNVK [C11H], the protein stability index amounted to 4.45.

With KVVEAHKIVLVAVSHVFMLLFNVK [C11V], the protein stability index is 3.24.

As for KVVEAHKIVLIAVSHVFMLLFNVK [C11I], the protein stability index was determined as 4.05.

Take KVVEAHKIVLKAVSHVFMLLFNVK [C11K]: the protein stability index turned out to be 1.75.

Take KVVEAHKIVLTAVSHVFMLLFNVK [C11T]: the protein stability index amounted to 1.99.

As to KVVEAHKIVECAVSHVFMLLFNVK [L10E], the protein stability index was 2.73.

Turning to KVVEAHKIVWCAVSHVFMLLFNVK [L10W], the protein stability index came out at 1.55.
